Results on one protein are retold here after paper doi:10.1101/2025.11.10.687720, “Magnetosome organelles are organized through interactions between McaA and McaB that alter the dynamics of the bacterial actin-like protein MamK” (bioRxiv, 2025).

This data set deals with the molecule itself. The experiment in a line: co-sedimentation; pelleting assay, each protein at 1 μM in polymerization buffer (10 mM Tris-HCl pH 7.5, 25 mM KCl, 2 mM MgCl2, 1 mM DTT) with or without 1 mM ATP, 25°C for 10 min, 100,000 x g for 30 min at 4°C; SDS-PAGE of pellet and supernatant.

B1: untagged recombinant MamK (natural protein, Magnetospirillum magneticum AMB-1, UniProt Q2W8Q6 1-347, looked up)
chain: MSEGEGQAKNRLFLGIDLGTSHTAVMSSRGKKFLLKSVVGYPKDVIGLKLLGRPYVVGDEAFEMRSYLDIRYPLQDGVLSEISDRDIEVARHLLTHVVKSAEPGPNDEICAVIGVPARASAANKALLLKMAQEVVHTALVVSEPFMVGYGLDKLINTIIVDIGAGTTDICALKGTVPGPEDQVTLTKAGNYVDERLQNAILERHPELQMNVNVACAVKEQFSFVGTPTEVASFEFRAAGKPVRADVTEPVKIACEALMPDIIESIETLLRSFQPEYQATVLQNIVFAGGGSRIRGLAAYVKEKLRPFGDANVTCVKDPTFDGCRGALRLAEELPPQYWRQLGDVSGS
notes: MamK, bacterial actin-like protein; 37.6 kDa as printed; The monomeric fractions were pooled; the protein forms filaments with ATP; also called purified MamK; MamK filaments; source: E. coli BL21, purified (ammonium sulfate precipitation, anion exchange, gel filtration)
Take B1: the binding result is on record as “binds”.
